The values below come from IntAct's records for PubMed 22975076.

This assay concerns the target tif1b_human TRIM28 (UniProt Q13263).

Sequence of tif1b_human TRIM28 (Q13263 whole entry): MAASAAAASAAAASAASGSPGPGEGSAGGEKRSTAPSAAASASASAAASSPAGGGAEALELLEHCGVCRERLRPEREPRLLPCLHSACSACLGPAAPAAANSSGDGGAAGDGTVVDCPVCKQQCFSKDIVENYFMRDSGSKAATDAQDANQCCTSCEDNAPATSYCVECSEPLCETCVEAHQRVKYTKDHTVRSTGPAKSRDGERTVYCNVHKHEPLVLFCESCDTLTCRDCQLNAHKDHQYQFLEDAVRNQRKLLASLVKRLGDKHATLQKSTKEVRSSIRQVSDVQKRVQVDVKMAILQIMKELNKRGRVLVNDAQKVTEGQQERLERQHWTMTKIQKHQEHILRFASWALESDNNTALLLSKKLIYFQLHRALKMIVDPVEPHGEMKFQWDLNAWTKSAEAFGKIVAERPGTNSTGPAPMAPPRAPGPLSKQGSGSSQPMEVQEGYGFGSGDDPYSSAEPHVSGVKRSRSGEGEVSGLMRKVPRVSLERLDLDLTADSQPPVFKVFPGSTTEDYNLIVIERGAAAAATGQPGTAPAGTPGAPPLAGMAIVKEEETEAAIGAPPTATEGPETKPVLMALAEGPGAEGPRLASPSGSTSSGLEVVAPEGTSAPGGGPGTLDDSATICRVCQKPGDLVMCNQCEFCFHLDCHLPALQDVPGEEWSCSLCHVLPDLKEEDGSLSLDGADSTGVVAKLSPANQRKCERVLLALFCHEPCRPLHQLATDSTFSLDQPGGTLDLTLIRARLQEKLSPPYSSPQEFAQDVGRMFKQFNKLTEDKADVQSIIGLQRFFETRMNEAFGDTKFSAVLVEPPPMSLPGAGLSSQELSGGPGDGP

Regarding “Zinc finger protein 350 (Homo sapiens), Q9GZX5 D12A”, the “effect of a mutation on the interaction” value is recorded as “decreasing interaction”.
The same measure for “Zinc finger protein 350 (Homo sapiens), Q9GZX5 V13A”: “decreasing interaction”.
